# T1: FLAG-tankyrase (encoding amino acids 2-1327 of SEQ ID NO:2) (human, UniProt O95271 2-1327)
# T1 construct: Expressed by transient transfection in HeLaI cells; also called exogenous tankyrase; transfected tankyrase
# T1 sequence: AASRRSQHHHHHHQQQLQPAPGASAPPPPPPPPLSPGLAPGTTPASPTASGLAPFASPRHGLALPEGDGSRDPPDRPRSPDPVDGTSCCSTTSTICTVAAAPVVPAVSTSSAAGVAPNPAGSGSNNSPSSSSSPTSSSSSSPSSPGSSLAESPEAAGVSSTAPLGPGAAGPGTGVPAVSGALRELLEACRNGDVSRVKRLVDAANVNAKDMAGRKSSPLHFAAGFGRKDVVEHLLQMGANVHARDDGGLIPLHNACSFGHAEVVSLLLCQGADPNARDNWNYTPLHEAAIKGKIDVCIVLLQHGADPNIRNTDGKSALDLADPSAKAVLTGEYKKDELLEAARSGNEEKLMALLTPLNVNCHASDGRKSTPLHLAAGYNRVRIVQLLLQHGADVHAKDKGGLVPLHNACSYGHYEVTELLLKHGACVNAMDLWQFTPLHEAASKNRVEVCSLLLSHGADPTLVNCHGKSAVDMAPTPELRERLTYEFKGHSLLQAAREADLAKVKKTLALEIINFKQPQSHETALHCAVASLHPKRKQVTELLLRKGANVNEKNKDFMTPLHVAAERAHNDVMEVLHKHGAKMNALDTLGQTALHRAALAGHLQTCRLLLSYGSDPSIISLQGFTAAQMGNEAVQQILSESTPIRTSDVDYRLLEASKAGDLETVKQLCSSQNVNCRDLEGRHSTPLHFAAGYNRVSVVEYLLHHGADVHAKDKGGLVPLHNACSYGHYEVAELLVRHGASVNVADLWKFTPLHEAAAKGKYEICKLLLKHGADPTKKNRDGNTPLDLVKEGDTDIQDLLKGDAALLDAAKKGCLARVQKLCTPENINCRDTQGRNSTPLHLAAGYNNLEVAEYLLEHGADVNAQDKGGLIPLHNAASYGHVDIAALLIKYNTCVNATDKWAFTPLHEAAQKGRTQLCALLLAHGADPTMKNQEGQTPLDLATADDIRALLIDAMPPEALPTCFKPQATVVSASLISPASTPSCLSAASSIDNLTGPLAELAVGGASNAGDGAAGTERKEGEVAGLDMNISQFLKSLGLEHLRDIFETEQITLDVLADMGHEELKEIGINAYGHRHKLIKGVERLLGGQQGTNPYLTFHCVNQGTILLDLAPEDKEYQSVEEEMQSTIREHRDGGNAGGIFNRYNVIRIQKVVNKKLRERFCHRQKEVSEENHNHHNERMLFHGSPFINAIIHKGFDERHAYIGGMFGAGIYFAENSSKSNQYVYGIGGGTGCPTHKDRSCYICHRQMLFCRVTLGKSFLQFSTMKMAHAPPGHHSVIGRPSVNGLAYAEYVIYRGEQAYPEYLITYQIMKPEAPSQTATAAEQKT
# T2: GAD-tankyrase hybrid containing 10 internal ANK repeats (9-19) (TR1L-12) (human, UniProt O95271 436-797)
# T2 construct: the construct holds only ANK repeats 9-19; also called 10-ANK repeat domain of tankyrase
# T2 sequence: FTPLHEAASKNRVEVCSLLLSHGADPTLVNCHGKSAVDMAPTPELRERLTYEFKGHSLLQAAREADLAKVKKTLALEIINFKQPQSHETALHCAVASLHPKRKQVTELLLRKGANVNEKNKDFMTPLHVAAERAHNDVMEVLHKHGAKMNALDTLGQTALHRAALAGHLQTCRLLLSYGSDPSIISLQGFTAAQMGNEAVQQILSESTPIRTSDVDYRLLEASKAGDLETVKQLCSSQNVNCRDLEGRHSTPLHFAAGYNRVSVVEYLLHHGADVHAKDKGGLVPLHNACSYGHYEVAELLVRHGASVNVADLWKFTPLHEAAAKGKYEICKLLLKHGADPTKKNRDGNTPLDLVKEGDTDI
# T3: TRF2 (telomeric repeat binding factor 2), Q15554
# T3 chain: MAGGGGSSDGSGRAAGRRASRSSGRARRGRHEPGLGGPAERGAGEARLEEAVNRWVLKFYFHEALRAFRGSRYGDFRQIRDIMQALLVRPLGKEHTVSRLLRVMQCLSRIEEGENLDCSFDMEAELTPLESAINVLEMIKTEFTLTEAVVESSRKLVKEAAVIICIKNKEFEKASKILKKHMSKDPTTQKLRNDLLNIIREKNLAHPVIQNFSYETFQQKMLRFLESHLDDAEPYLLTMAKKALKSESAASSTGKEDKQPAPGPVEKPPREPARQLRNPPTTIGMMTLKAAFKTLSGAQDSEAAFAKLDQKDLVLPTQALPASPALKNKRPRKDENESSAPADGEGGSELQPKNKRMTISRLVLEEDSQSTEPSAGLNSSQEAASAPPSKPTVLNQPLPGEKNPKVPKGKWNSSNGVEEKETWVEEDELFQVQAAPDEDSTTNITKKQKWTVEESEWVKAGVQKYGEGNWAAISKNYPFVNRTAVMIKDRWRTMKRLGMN
# T4: baculovirus-derived TRF1, P54274
# T4 chain: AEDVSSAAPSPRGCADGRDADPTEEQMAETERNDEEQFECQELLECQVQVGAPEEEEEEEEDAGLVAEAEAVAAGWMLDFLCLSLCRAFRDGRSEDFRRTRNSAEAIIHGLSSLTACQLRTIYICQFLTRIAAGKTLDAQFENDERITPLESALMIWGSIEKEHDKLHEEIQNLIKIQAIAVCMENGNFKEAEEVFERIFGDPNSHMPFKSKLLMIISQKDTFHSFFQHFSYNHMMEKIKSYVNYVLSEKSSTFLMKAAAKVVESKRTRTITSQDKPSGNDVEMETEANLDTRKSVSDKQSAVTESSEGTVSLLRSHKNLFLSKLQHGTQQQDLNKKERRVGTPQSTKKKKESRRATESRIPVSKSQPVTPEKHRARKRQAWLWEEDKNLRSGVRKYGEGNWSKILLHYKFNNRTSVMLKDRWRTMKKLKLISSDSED
# How the values were obtained:
# [1] = molecular target: amino-terminal acidic domain of TRF1 fused to LexA (LexAd68-C) (human) (UniProt P54274); assay: cell-based or functional assay
# [2] = molecular target: T1, FLAG-tankyrase (encoding amino acids …); assay: indirect immunofluorescence of co-transfected HeLaI cells (co-localization, nuclear translocation)
# [3] = molecular target: T2, GAD-tankyrase hybrid containing 10 …; assay: yeast two-hybrid, β-galactosidase; LexA without TRF1 sequences
# Description: TR1L-4 and TR1L-12 were isolated from a human liver two-hybrid cDNA library (Clontech) created in pGad10. The library was screened with human full length TRF1 cDNA fused to LexA (LexA-TRF1) [Bianchi et al., EMBO J., 16:1785-1794 (1997)] in the yeast strain L40 as described [Hollenberg et al., Mol. Cell Biol., 15:3813-3822 (1995)]. Two-hybrid analysis was performed as described by Bianchi et al. [EMBO J., 16:1785-1794 (1997)]. β-galactosidase assays for the two-hybrid analysis was performed as described by Bianchi et al. [EMBO J., 16:1785-1794 (1997)].
# Two-hybrid analysis was used to determine the interacting domains between tankyrase and TRF1. […] To determine the tankyrase-interacting domain in TRF1, two-hybrid analysis was performed with the 10-ANK repeat domain of TR1L-12 fused to the GAL4 activation domain (GAD-tankyrase) and full-length and deletion constructs of TRF1 fused to LexA. […] As observed previously, the amino-terminal acidic domain of TFR1 (LexAd68-C) activated transcription even in the absence of tankyrase sequences in the GAD fusion partner. […] Deletion of the acidic domain of TRF1 (ΔN66-LexA) abolished the interaction with GAD-tankyrase.
# [4] = molecular target: T3, TRF2 (telomeric repeat binding factor …)
# [5] = molecular target: T4, baculovirus-derived TRF1, P54274
molecule,measurement,setting,value
GAD-tankyrase hybrid containing 10 internal ANK repeats (9-19) (TR1L-12) (from UniProt O95271 436-797),β-galactosidase levels (two-hybrid),[1],50.4 units
"human TRF1 (telomeric repeat binding factor 1), expressed from pcDNA3-hTRF1 in HeLaI cells (other, UniProt P54274 1-439, looked up) MAEDVSSAAPSPRGCADGRDADPTEEQMAETERNDEEQFECQELLECQVQVGAPEEEEEEEEDAGLVAEAEAVAAGWMLDFLCLSLCRAFRDGRSEDFRRTRNSAEAIIHGLSSLTACQLRTIYICQFLTRIAAGKTLDAQFENDERITPLESALMIWGSIEKEHDKLHEEIQNLIKIQAIAVCMENGNFKEAEEVFERIFGDPNSHMPFKSKLLMIISQKDTFHSFFQHFSYNHMMEKIKSYVNYVLSEKSSTFLMKAAAKVVESKRTRTITSQDKPSGNDVEMETEANLDTRKSVSDKQSAVTESSEGTVSLLRSHKNLFLSKLQHGTQQQDLNKKERRVGTPQSTKKKKESRRATESRIPVSKSQPVTPEKHRARKRQAWLWEEDKNLRSGVRKYGEGNWSKILLHYKFNNRTSVMLKDRWRTMKKLKLISSDSED",binding result,[2],binds
"LexA (alone) (other, UniProt P0A7C2 1-202, looked up, Control) MKALTARQQEVFDLIRDHISQTGMPPTRAEIAQRLGFRSPNAAEEHLKALARKGVIEIVSGASRGIRLLQEEEEGLPLVGRVAAGEPLLAQQHIEGHYQVDPSLFKPNADFLLRVSGMSMKDIGIMDGDLLAVHKTQDVRNGQVVVARIDDEVTVKRLKKQGNKVELLPENSEFKPIVVDLRQQSFTIEGLAVGVIRNGDWL",binding result,[3],no binding
baculovirus-derived N-terminally [His]6-tagged fusion protein of human tankyrase (protein) MAASRRSQHHHHHHQQQLQPAPGASAPPPPPPPPLSPGLAPGTTPASPTASGLAPFASPRHGLALPEGDGSRDPPDRPRSPDPVDGTSCCSTTSTICTVAAAPVVPAVSTSSAAGVAPNPAGSGSNNSPSSSSSPTSSSSSSPSSPGSSLAESPEAAGVSSTAPLGPGAAGPGTGVPAVSGALRELLEACRNGDVSRVKRLVDAANVNAKDMAGRKSSPLHFAAGFGRKDVVEHLLQMGANVHARDDGGLIPLHNACSFGHAEVVSLLLCQGADPNARDNWNYTPLHEAAIKGKIDVCIVLLQHGADPNIRNTDGKSALDLADPSAKAVLTGEYKKDELLEAARSGNEEKLMALLTPLNVNCHASDGRKSTPLHLAAGYNRVRIVQLLLQHGADVHAKDKGGLVPLHNACSYGHYEVTELLLKHGACVNAMDLWQFTPLHEAASKNRVEVCSLLLSHGADPTLVNCHGKSAVDMAPTPELRERLTYEFKGHSLLQAAREADLAKVKKTLALEIINFKQPQSHETALHCAVASLHPKRKQVTELLLRKGANVNEKNKDFMTPLHVAAERAHNDVMEVLHKHGAKMNALDTLGQTALHRAALAGHLQTCRLLLSYGSDPSIISLQGFTAAQMGNEAVQQILSESTPIRTSDVDYRLLEASKAGDLETVKQLCSSQNVNCRDLEGRHSTPLHFAAGYNRVSVVEYLLHHGADVHAKDKGGLVPLHNACSYGHYEVAELLVRHGASVNVADLWKFTPLHEAAAKGKYEICKLLLKHGADPTKKNRDGNTPLDLVKEGDTDIQDLLKGDAALLDAAKKGCLARVQKLCTPENINCRDTQGRNSTPLHLAAGYNNLEVAEYLLEHGADVNAQDKGGLIPLHNAASYGHVDIAALLIKYNTCVNATDKWAFTPLHEAAQKGRTQLCALLLAHGADPTMKNQEGQTPLDLATADDIRALLIDAMPPEALPTCFKPQATVVSASLISPASTPSCLSAASSIDNLTGPLAELAVGGASNAGDGAAGTERKEGEVAGLDMNISQFLKSLGLEHLRDIFETEQITLDVLADMGHEELKEIGINAYGHRHKLIKGVERLLGGQQGTNPYLTFHCVNQGTILLDLAPEDKEYQSVEEEMQSTIREHRDGGNAGGIFNRYNVIRIQKVVNKKLRERFCHRQKEVSEENHNHHNERMLFHGSPFINAIIHKGFDERHAYIGGMFGAGIYFAENSSKSNQYVYGIGGGTGCPTHKDRSCYICHRQMLFCRVTLGKSFLQFSTMKMAHAPPGHHSVIGRPSVNGLAYAEYVIYRGEQAYPEYLITYQIMKPEAPSQTATAAEQKT,ADP-ribosylation (PARP assay),[4],TRF2 is not a substrate for modification in vitro
same,ADP-ribosylation of TRF1 (PARP assay with [32P]NAD+),[5],Tankyrase also has the ability to modify TRF1
